Source: PMC8537613 (2021)

Biological target: m102.4
Test: ELISA

B1: NiV sG (domain or fragment)
chain: QNYTRSTDNQAVIKDALQGIQQQIKGLADKIGTEIGPKVSLIDTSSTITIPANIGLLGSKISQSTASINENVNEKCKFTLPPLKIHECNISCPNPLPFREYRPQTEGVSNLVGLPNNICLQKTSNQILKPKLISYTLPVVGQSGTCITDPLLAMDEGYFAYSHLERIGSCSRGVSKQRIIGVGEVLDRGDEVPSLFMTNVWTPPNPNTVYHCSAVYNNEFYYVLCAVSTVGDPILNSTYWSGSLMMTRLAVKPKSNGGGYNQHQLALRSIEKGRYDKVMPYGPSGIKQGDTLYFPAVGFLVRTEFKYNDSNCPITKCQYSKPENCRLSMGIRPNSHYILRSGLLKYNLSDGENPKVVFIEISDQRLSIGSPSKIYDSLGQPVFYQASFSWDTMIKFGDVLTVNPLVVNWRNNTVISRPGQSQCPRFNTCPEICWEGVYNDAFLIDRINWISAGVFLDSNQTAENPVFTVFKDNEILYRAQLASEDTNAQKTITNCFLLKNKIWCISLVEIYDTGDNVIRPKLFAVKIPEQCT
Kd: 0.15 nM
